Assay results reported in patent US11673947B2, “Target tissue-specific antigen-binding molecule” (Chugai Seiyaku Kabushiki Kaisha, priority 2012, dated 2023).

What was measured:
hIL-6R [1] = molecular target: T1, hIL-6R (Homo sapiens, UniProt P08887); assay: IgG ELISA, binding to hIL-6R in mouse serum with or without kynurenine; conditions: Table 20: condition 1 (mouse serum without kynurenine) vs condition 2 (mouse serum in the presence of kynurenine)
T1 sequence (P08887 20-355 limits assumed): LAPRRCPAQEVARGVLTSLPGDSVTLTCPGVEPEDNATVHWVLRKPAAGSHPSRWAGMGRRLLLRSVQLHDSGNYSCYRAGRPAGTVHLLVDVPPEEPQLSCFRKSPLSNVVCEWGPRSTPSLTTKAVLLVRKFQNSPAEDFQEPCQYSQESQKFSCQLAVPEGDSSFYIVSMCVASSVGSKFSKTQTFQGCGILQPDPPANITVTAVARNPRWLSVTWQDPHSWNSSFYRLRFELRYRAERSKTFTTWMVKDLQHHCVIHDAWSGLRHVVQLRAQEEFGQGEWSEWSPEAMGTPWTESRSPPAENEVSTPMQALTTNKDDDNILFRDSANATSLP
Procedure: As described in Example 14, antibody 6RNMSC1-2_F02 which has antigen-binding activity in the presence of kynurenine, and the known anti-hIL-6R antibody MRA were subjected to ELISA under the two conditions described in Table 20. The antigen used was biotin-labeled hIL-6R.
First, a StreptaWell 96 microtiter plate (Roche) was coated at room temperature for one hour or more with 100 μl of PBS containing the biotin-labeled antigen. After washing with Wash buffer to remove unbound antigen from the plate, each well was blocked for one hour or more with 250 μl of Blocking Buffer. After Blocking Buffer was removed from each well, each of the purified IgGs was prepared to 2.5 μg/ml under condition 2 shown in Table 20, and aliquoted at 100 μl into the plate. The plate was allowed to stand at room temperature for one hour to allow binding of each IgG to the antigen in each well. After washing with Wash Buffer containing 100 μM kynurenine, an HRP-conjugated anti-human IgG antibody (BIOSOURCE) diluted with Sample Buffer containing kynurenine was added to each well. The plate was incubated for one hour. Following wash with Wash Buffer containing kynurenine, the TMB single solution (ZYMED) was added to each well. The chromogenic reaction in the solution of each well was terminated by adding sulfuric acid. Then, the developed color was assessed by measuring absorbance at 450 nm.

hIL-6R [2] = molecular target: T1, hIL-6R; assay: Phage ELISA, binding to hIL-6R in the presence or absence of SC; conditions: in the presence of SC
Procedure: Culture supernatants containing phages were collected according to a conventional method (Methods Mol. Biol. (2002) 178, 133-145) from single colonies of E. coli obtained as described in (14-2). Phages purified by the method described in (2-4) were subjected to ELISA by the following procedure. A StreptaWell 96 microtiter plate (Roche) was coated overnight with 100 μl of TBS containing biotin-labeled hIL-6R. After biotin-labeled hIL-6R was removed by washing each well of the plate with TBST, the wells were blocked with 250 μl of 2% skim milk/TBS for one hour or more. 2% skim milk/TBS was removed, and then the prepared, purified phages were added to each well. The plate was allowed to stand at room temperature for one hour to allow binding of antibody-displaying phages to biotin-labeled hIL-6R in each well in the presence or absence of SC. After washing with TBST or SC/TBST, an HRP-conjugated anti-M13 antibody (Amersham Pharmacia Biotech) diluted with TBS or SC/TBS was added to each well. The plate was incubated for one hour. Following wash with TBST or SC/TBST, the TMB single solution (ZYMED) was added to each well. The chromogenic reaction in the solution of each well was terminated by adding sulfuric acid. Then, the developed color was assessed by measuring absorbance at 450 nm.

B1: 6RNMSC1-2_F02: antibody that binds to hIL-6R in the presence of kynurenine; SEQ ID NOs: 86 and 87 (antibody, listed as Homo sapiens, V domains shown)
VH: QVQLVQSGAEVKKPGSSVKVSCKASGGTFSSYAISWVRQAPGQGLEWMGGIIPIFGTANYAQKFQGRVTITADESTSTAYMELSSLRSEDTAVYYCARDAPVVARPRGAFDIWGQGTMVTVSS
VL: DIVMTQTPLSSPVTLGQPASISCRSSQSLVHSDGNTYLSWLQQRPGQPPRLLIHEISNRFSGVPDRFSGSGAGTNFTLKISRVEAEDVGVYYCMQATQFPRTFGQGTKVEIK
absorbance under condition 1 as compared to condition 2 (hIL-6R [1]): markedly lower | binding activity to hIL-6R in the presence of a small molecule cocktail (phage ELISA) (hIL-6R [2]): have binding activity
